Laboratory results from patent publication US20140072613A1 (published 2014).

Columns and labels:
Test in all cases: cell-based or functional assay
GSK3α(h) = GSK3α(h) (human, UniProt P49840 1-483)
IR(h) = IR(h) (human, UniProt P06213 1005-1310, limits assumed)
Lyn(h) = Lyn(h) (human, UniProt P07948 1-512)
MELK(h) = MELK(h) (human, UniProt Q14680 1-340, limits assumed)
MINK(h) = MINK(h) (human, UniProt Q8N4C8 1-320, limits assumed)
PKCι(h) = biological target: T1, PKCι(h) (human, UniProt P41743 1-596)
T1 sequence (looked up): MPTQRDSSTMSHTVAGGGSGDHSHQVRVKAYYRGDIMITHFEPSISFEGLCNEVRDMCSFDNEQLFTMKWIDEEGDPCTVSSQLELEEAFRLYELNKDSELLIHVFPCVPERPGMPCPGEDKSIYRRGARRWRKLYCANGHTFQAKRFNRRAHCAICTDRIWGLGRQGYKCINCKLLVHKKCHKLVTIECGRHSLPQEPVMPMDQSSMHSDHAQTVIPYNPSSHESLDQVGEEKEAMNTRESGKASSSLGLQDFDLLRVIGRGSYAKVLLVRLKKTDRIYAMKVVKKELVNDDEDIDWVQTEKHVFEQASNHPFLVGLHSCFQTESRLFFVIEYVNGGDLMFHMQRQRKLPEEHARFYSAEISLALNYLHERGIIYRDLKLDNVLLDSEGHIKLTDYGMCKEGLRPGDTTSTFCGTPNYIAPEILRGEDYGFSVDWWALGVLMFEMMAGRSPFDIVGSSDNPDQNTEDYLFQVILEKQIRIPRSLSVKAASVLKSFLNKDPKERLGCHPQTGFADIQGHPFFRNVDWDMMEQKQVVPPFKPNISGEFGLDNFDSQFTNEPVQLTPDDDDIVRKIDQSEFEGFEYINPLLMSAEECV

Ret(h) = biological target: T2, Ret(h) (human, UniProt P07949 658-1114, limits assumed)
T2 sequence (looked up): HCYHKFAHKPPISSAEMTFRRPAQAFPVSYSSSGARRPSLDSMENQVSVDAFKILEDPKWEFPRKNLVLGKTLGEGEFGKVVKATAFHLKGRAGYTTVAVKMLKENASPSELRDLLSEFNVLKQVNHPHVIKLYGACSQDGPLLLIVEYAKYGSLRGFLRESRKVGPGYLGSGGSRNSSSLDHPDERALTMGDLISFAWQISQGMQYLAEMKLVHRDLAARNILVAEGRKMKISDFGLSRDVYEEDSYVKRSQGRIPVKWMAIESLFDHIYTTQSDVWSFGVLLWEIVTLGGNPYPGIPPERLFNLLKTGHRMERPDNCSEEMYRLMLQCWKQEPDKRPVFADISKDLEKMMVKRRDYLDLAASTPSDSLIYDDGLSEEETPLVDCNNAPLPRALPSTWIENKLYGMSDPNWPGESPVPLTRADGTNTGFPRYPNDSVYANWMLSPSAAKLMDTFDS

SGK3(h) = biological target: T3, SGK3(h) (human, UniProt Q96BR1 1-496, limits assumed)
T3 sequence (looked up): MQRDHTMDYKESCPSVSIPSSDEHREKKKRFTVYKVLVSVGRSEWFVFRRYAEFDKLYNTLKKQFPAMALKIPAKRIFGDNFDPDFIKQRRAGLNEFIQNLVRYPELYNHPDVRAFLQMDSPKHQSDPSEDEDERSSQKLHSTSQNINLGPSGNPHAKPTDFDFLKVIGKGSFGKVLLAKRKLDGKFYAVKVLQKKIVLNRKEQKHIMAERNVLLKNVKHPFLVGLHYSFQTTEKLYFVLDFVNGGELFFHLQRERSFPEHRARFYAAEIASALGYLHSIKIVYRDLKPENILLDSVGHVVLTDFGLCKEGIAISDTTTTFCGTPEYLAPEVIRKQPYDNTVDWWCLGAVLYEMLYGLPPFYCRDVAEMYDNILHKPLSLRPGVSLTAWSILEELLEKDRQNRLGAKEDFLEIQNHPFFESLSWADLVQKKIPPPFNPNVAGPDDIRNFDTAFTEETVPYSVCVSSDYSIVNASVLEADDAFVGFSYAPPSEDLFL

SIK(h) = SIK(h) (human, UniProt P57059 1-783, limits assumed)
EphA2(h) = biological target: T4, EphA2(h) (human, UniProt P29317 559-976, limits assumed)
T4 sequence (looked up): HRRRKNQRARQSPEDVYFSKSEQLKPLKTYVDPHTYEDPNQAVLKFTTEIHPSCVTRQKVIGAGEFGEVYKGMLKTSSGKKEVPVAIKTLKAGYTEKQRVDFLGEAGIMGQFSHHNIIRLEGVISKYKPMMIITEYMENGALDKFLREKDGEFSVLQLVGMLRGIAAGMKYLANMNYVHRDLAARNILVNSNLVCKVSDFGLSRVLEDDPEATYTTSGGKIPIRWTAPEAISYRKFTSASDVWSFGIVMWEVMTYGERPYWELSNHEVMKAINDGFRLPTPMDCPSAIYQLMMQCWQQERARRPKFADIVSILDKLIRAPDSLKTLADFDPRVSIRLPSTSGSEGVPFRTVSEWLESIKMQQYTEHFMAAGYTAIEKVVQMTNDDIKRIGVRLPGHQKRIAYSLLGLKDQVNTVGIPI

EphA4(h) = biological target: T5, EphA4(h) (human, UniProt P54764 570-986, limits assumed)
T5 sequence (looked up): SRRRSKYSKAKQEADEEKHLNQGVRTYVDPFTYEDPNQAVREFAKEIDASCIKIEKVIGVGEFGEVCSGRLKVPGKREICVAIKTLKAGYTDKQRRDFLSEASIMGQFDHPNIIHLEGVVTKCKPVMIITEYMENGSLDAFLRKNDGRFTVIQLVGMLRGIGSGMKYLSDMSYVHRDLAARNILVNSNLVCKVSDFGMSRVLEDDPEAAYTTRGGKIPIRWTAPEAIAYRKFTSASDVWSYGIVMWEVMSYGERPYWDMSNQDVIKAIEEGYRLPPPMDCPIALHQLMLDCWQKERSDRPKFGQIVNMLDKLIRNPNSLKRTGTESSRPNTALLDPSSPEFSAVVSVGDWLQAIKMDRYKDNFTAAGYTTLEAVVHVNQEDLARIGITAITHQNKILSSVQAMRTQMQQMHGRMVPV

Chain of SIK(h) (P57059 whole entry): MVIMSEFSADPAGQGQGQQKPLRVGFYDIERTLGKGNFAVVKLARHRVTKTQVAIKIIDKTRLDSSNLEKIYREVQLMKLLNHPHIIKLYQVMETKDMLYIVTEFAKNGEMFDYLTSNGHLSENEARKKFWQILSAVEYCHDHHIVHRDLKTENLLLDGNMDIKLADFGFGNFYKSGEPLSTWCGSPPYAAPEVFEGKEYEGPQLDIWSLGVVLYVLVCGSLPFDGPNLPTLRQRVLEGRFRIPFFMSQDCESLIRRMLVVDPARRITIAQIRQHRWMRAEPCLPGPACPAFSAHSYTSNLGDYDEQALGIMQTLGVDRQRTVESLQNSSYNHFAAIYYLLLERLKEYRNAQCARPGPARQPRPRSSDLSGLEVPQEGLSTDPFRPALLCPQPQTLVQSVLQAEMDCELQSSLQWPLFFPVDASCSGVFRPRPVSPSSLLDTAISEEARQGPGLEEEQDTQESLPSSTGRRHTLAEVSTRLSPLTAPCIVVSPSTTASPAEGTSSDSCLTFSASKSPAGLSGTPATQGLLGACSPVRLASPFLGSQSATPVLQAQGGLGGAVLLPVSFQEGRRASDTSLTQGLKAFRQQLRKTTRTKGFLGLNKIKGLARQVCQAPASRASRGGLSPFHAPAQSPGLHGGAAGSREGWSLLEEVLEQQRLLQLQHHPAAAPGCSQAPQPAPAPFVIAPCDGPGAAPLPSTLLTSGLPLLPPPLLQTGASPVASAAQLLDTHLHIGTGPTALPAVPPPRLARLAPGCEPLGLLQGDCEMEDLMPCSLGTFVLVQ
Chain of MELK(h) (Q14680 1-340 limits assumed): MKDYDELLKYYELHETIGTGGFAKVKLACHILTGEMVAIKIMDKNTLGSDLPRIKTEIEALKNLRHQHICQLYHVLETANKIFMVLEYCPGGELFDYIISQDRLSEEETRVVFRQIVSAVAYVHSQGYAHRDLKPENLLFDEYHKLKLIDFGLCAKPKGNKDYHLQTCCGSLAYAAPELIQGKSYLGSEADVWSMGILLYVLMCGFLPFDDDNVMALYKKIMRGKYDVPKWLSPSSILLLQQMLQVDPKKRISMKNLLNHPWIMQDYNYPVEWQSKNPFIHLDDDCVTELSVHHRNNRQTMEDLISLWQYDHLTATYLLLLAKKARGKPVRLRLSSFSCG
Chain of MINK(h) (Q8N4C8 1-320 limits assumed): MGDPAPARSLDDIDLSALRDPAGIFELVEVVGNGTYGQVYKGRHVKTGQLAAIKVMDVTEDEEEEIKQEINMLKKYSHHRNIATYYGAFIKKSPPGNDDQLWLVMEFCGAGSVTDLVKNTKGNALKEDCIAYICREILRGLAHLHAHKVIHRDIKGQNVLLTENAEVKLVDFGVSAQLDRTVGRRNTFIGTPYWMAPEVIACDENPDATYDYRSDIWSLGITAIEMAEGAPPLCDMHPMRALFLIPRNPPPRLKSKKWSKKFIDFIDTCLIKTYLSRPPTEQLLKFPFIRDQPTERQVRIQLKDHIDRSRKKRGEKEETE
Chain of GSK3α(h) (P49840 whole entry): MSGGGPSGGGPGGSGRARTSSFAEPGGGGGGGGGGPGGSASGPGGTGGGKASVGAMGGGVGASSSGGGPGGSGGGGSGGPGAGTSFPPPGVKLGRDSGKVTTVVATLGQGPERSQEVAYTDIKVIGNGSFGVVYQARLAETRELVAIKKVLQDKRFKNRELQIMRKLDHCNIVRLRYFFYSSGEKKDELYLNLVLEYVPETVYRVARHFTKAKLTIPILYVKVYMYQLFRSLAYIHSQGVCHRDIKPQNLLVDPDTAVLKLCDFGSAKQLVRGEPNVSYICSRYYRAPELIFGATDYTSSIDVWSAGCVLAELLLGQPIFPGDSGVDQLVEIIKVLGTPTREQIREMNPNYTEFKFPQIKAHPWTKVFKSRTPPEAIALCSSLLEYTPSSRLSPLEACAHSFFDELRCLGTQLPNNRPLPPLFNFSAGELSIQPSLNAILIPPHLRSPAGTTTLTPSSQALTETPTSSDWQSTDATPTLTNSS
Chain of Lyn(h) (P07948 whole entry): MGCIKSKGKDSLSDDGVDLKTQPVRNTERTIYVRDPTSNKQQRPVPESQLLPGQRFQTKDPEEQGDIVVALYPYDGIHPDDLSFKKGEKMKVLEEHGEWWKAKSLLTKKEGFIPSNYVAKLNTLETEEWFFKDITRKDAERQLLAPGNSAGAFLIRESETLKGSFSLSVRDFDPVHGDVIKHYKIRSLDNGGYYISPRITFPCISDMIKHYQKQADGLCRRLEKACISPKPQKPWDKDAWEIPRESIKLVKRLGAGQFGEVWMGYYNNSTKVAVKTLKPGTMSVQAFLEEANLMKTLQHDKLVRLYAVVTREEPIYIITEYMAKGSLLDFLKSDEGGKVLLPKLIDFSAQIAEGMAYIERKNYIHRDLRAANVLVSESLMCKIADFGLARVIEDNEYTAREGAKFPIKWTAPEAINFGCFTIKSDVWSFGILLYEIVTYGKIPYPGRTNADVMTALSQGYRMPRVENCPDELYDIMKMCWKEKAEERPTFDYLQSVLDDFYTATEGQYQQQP
Chain of IR(h) (P06213 1005-1310 limits assumed): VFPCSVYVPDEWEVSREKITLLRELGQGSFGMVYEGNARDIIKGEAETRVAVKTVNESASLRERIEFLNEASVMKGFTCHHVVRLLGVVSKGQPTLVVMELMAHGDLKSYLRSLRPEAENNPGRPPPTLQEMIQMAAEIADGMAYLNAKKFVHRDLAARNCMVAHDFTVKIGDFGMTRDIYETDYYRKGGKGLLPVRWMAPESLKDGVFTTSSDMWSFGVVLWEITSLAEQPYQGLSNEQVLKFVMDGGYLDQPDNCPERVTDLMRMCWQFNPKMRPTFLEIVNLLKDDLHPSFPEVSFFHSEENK

Binder | % activity, 100 µM (GSK3α(h)) | % activity, 100 µM (IR(h)) | % activity, 100 µM (Lyn(h)) | % activity, 100 µM (MELK(h)) | % activity, 100 µM (MINK(h)) | % activity, 100 µM (PKCι(h)) | % activity, 100 µM (Ret(h)) | % activity, 100 µM (SGK3(h)) | % activity, 100 µM (SIK(h)) | % activity, 100 µM (EphA2(h)) | % activity, 100 µM (EphA4(h))
FAKLAARLYRKALARQLGVAA [MMI-0300] | 157% | 96% | 69% | 16% | 48% | 68% | 140% | 10% | 66% | 31% | 88%
KAFAKLAARLYRKALARQLGVAA [MMI-0400] | 164% | 85% | 3% | 17% | 52% | 46% | 145% | 8% | 68% | 17% | 65%
